These are literature values, as cited in paper PMC2874015.

By Kd is commonly meant the free concentration of one partner at which half of the binding sites on the other are occupied at equilibrium, for simple one-to-one binding.

Data set [1] concerns the target GCN4 leucine zipper (Saccharomyces cerevisiae) (UniProt P03069).
The target of data set [2] is c-Jun leucine zipper (Homo sapiens) (UniProt P05412).

c-Jun leucine zipper, sequence (P05412 277-311): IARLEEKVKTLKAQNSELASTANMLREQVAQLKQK
GCN4 leucine zipper, sequence (P03069 250-277): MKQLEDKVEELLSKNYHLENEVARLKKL

As to “GCN4 leucine zipper (from UniProt P03069)”, in data set [1], the equilibrium dissociation constant (Kd) is 0.008 µM.
Take “c-Jun leucine zipper (from UniProt P05412)”: the Kd in data set [2] was 448 µM.
